Measured values taken from the DeepSol protein solubility set.

Assay: soluble on expression in E. coli; label from the status in PepcDB or PDB records

Sequence	soluble on expression in E. coli
MIGEIPGVAAGQPYNSRRLAHEAGVHRPLQAGICGTKATGAESIVVSGGYKDDEDYGDVIIYTGHGGRDSAGNQVSDQSLDDSGNAALVTSYLRGLPVRVIRGSQSGSPFAPSNGYRYDGLYRVASYTSKLGIDGFLIWQFRMEAYEETPTPKITKVRALFAEPTDCAKQDPVAASGTEQPERVTSMVQRIVRSSAIADTVKAWHQDQCQTCGIHIEVPGGFYSEGAHIQALGRPHNGPDRTDNMLCLCPNCHVMLDAGAIVLSDDLIVSKNGQLVGPLRTHPKHKVNIECVRRHRERWRQLEHHHHHH	not soluble
MIGFAACECIIYNARSLKDKRAVLQRVMTRIRQKYNVSVAEIDHQDAWQRATIGLVAITSSRRATERELERALALIDSFPELERAATSFEWL	not soluble
MIGGLFVYNHKGEVLISRIYRDDVTRNAVDAFRVNVIHARQQVRSPVTNMARTSFFHVKRGNVWICAVTRQNVNAAMVFEFLKRFADTMQSYFGKLNEENVKNNFVLIYELLDEILDFGYPQNTDPGVLKTFITQQGVRTATKEEQSQITSQVTGQIGWRREGIKYRRNELFLDVIEYVNLLMNQQGQVLSAHVAGKVAMKSYLSGMPECKFGINDKITIEGKSKPGSDDPNKASRAAVAIDDCQFHQCVKLTKFETEHAISFIPPDGEYELMRYRTTKDIQLPFRVIPLVREVSRNKMEVKVVVKSNFKPSLLAQKLEVRIPTPPNTSGVQLICMKGKAKYKAGENAIVWKIKRMAGMKESQISAEIDLLSTGNVEKKKWNRPPVSMNFEVPFAPSGLKVRYLKVFEPKLNYSDHDVIKWVRYIGRSGLYETRC	not soluble
MIGITGVTGKLGSKVAQLISEQGISARHLARNPQRAALYDNAELVQVAFENSLEAVEALKGIDVLLMVSASESPNRLQQHFAFLDAAHEAGVKHIVYTSFYNAATEATFTLARDHAKTEKYIKERGFTYTFLRDNFYLDFFLDLCLNNGEIRGPAGNGKVSAVARQDVSEVATTILAKPDKWKNQLLNMTGPADLSMADIVHFVSEQKGEIIPYIDESIEEAYASRKAWPAQDWEYDAWVSTYTAIKEGKQAGVSSDIERVLGRPATSLEQLVKTIK	not soluble
MIGKRFFQTTSKKIAFAFDIDGVLFRGKKPIAGASDALKLLNRNKIPYILLTNGGGFSERARTEFISSKLDVDVSPLQIIQSHTPYKSLVNKYSRILAVGTPSVRGVAEGYGFQDVVHQTDIVRYNRDIAPFSGLSDEQVMEYSRDIPDLTTKKFDAVLVFNDPHDWAADIQIISDAINSENGMLNTLRNEKSGKPSIPIYFSNQDLLWANPYKLNRFGQGAFRLLVRRLYLELNGEPLQDYTLGKPTKLTYDFAHHVLIDWEKRLSGKIGQSVKQKLPLLGTKPSTSPFHAVFMVGDNPASDIIGAQNYGWNSCLVKTGVYNEGDDLKECKPTLIVNDVFDAVTKTLEKYA	soluble
MIGRVFRIFREKGGILKALGLWEWYENLPHKYQKKVKHYYSLKTIKSINFPYKAKHFDTGEVENVLYTKRTFLGTIAQTALLEGDLEFAEWLYNEALKMEGSPYEAHLILNDLVLLAQKQRDLEKVKKYVLQDVELYPEYKEELKSRWGGTLPQIMAFEIYVYLLEREGKIKEALELVEWIKKEGITYPYYDQVKERLLQKLK	not soluble
MIGYLFGNRVLVDDKELPLIEAYYLLDKGELEVYEDDKKLSKEEFLKKCLTYDERFLIRYKAYKELRDKGYTLGTALKFGADFRVYDIGVIPKKGKRSEREHSKWVLYPVSKDETFDFYEFASKNRVAHSTRKKMLMGIVSDKIEFIEVSWKKP	soluble
MIHLYDAKSFAKLRAAQYAAFHTDAPGSWFDHTSGVLESVEDGTPVLAIGVESGDAIVFDKNAQRIVAYKEKSVKAEDGSVSVVQVENGFMKQGHRGWLVDLTGELVGCSPVVAEFGGHRYASGMVIVTGKGNSGKTPLVHALGEALGGKDKYATVRFGEPLSGYNTDFNVFVDDIARAMLQHRVIVIDSLKNVIGAAGGNTTSGGISRGAFDLLSDIGAMAASRGCVVIASLNPTSNDDKIVELVKEASRSNSTSLVISTDVDGEWQVLTRTGEGLQRLTHTLQTSYGEHSVLTIHTSKQSGGKQASGKAIQTVIKNDELESVLRRLTSN	soluble
MIIHFTLNGAPQELTVNPGENVQKLLFNMGMHSVRNSDDGFGFAGSDAIIFNGNIVNASLLIAAQLEKADIRTAESLGKWNELSLVQQAMVDVGVVQSGYNDPAAALIITDLLDRIAAPTREEIDDALSGLFSRDAGWQQYYQVIELAVARKNNPQATIDIAPTFRDDLEVIGKHYPKTDAAKMVQAKPCYVEDRVTADACVIKMLRSPHAHALITHLDVSKAEALPGVVHVITHLNCPDIYYTPGGQSAPEPSPLDRRMFGKKMRHVGDRVAAVVAESEEIALEALKLIDVEYEVLKPVMSIDEAMAEDAPVVHDEPVVYVAGAPDTLEDDNSHAAQRGEHMIINFPIGSRPRKNIAASIHGHIGDMDKGFADADVIIERTYNSTQAQQCPTETHICFTRMDGDRLVIHASTQVPWHLRRQVARLVGMKQHKVHVIKERVGGGFGSKQDILLEEVCAWATCVTGRPVLFRYTREEEFIANTSRHVAKVTVKLGAKKDGRLTAVKMDFRANTGPYGNHSLTVPCNGPALSLPLYPCDNVDFQVTTYYSNICPNGAYQGYGAPKGNFAITMALAELAEQLQIDQLEIIERNRVHEGQELKILGAIGEGKAPTSVPSAASCALEEILRQGREMIQWSSPKPQNGDWHIGRGVAIIMQKSGIPDIDQANCMIKLESDGTFIVHSGGADIGTGLDTVVTKLAAEVLHCPPQDVHVISGDTDHALFDKGAYASSGTCFSGNAARLAAENLREKILFHGAQMLGEPVADVQLATPGVVRGKKGEVSFGDIAHKGETGTGFGSLVGTGSYITPDFAFPYGANFAEVAVNTRTGEIRLDKFYALLDCGTPVNPELALGQIYGATLRAIGHSMSEEIIYDAEGHPLTRDLRSYGAPKIGDIPRDFRAVLVPSDDKVGPFGAKSISEIGVNGAAPAIATAIHDACGIWLREWHFTPEKILTALEKI	soluble
MIIIGIDEAGRGPVLGPMVVCAFAIEKEREEELKKLGVKDSKELTKNKRAYLKKLLENLGYVEKRILEAEEINQLMNSINLNDIEINAFSKVAKNLIEKLNIRDDEIEIYIDACSTNTKKFEDSFKDKIEDIIKERNLNIKIIAEHKADAKYPVVSAASIIAKAERDEIIDYYKKIYGDIGSGYPSDPKTIKFLEDYFKKHKKLPDIARTHWKTCKRILDKSKQTKLIIE	soluble
MIIREQRVEKFNAGKAVYQSVSKTESLARTAKDRKICANLEEAIRRSGLKDGMTVSFHHAFRAGDCVVNMVMNKIAEMGFKNLTLASSSLIDSHYPLIEHIKNGVVTKIYSSGLRGQLADEISRGLLAEPVNIHSHGGRVHLIKAGELKIDVAFLGVPCCDKFGNANGFSGKSKCGSLGYARIDAEYADKVVLLTEQFDEYPLNPISIGQDNVDLIVQVDEVGDPEKIGGGATRMTTNPRELLIARKCAQVIFASGYFKDGFSLQTGTGGASLAVTRFLEDKMRREQITAGFALGGITSSIVALHEAGLIKKLIDVQSFDKDAAESLARNPNHIEVSANQYANYSSKGPSVECLDIVVLSALEIDTQFNVNVLTGSDGVIRGASGGHSDTAASAQVAIIVAPLVRGRIPTVVEQVITCVTPGENIDILVTDHGVAVNPKRLDLVDKLTAAGLELFTIEQLCARAYSITGKSKEIEFKDKPVAVVRYRDGSVIDTVYQIKELEHHHHHH	soluble
MIITEQNMPEEKLQTLSLQVINGSELESGRAARCLFTQQGNVGHAPECHWSVQDRQQSIPAQAFTVILHDGTFCLRPQTAQLWLNQAKVTATSDLIQLRQGDEIQIGRLMVRVHLNRGDIPHYDEEMATPETIVTNRDMLTDTLLSTEGAPHYPGMTHRHQLADTVVNGFSADPLQALQSESLITTGDPLSGIAAVRPSAPLSDPASNGGINTPFMDLPPIYASPGDHNDDISAAEMAQRHLAVTPLLRGLGGSLTVSNSDDADDFLEEAGRTLQAAIKGLLDLQQQRNSLSDKHLRPLEDNPLRLNMDYATALDVMFAEGKSPVHLAAPAAVSESLRNVRHHEEANRAAIVESLRVLLDAFSPQNLLRRFVQYRRSHELRQPLDDAGAWQMYSHYYEELASDRQQGFEMLFNEVYAQVYDRVLREKQREPEA	soluble
MIITIARQCGCGGHEVARILANKLGMELFDKKKLLEEANQLGQAEEHSNFFNEVPINSLLYGIAMGFGNTKPMDKSLKLVKAITENKDAIIIGRCANIIYKDSKDVTSVYLFADKEFRIKYLMERDGISEKEAEKYIKEVDEKRTSFHKYCTDTVWGDAKEYQLCLDTGKIGFEKTAELIMNYINAKKES	not soluble
MIKCIYIVCALNDNTIYSTLHYMEYSIQRGEIYMKIIKRSGSEDIFDAAKIVAAIRKANDSVLDYEKLTADQIEEIASNVETACENMKRSPSVEEIQDMVENQLMNKRAFTVARNYITYRYKRAIVRKSNST	not soluble
MIKEFCAENLTLLPTLDAGQVSRVELCDNLAVGGTTPSYGVIKEACQLLHDKKISVATMIRPRGGDFVYNDLELKAMEEDILKAVEAGSDALVLGLLTTENQLDTDAIEQLLPATQGLPLVFHMAFDHIPTDHQHQALDQLIDYGFVRVLTHGSPEATPITDNVEQLKSLVTYANKRIEIMIGGGVTAENCQNLSQLTGTAIVHGTKIILEHHHHHH	soluble
MIKFYQYKNCTTCKKAAKFLDEYGVSYEPIDIVQHTPTINEFKTIIANTGVEINKLFNTHGAKYRELDLKNKLQTLSDDEKLELLSSDGMLVKRPLAVMGDKITLGFKEDQYKETW	soluble
MIKIAPSILSADFSKLGEEIKDVEKGGADYIHVDVMDGHFVPNITIGPLIVEAIRPITSLPLDVHLMIENPDNYIPTFAKAGADIITVHVEACPHLHRTIQLIKSHGIKAGVVLNPHTPVSVIEHVLEDIDMVLLMTVNPGFGGQKFIHSVLPKIKQVAEMVKERNLEVEIEVDGGVNAETARLCVEAGANVLVAGSAVYNQKDRGEAIRVIRG	soluble
MIKISTRFDAGSVVVKDLTDPSNIRLALRPDNASDFAQWFYFRLQGAAYQNCIMHFENAAEAAYPKGWEGYQACASYDRRNWFRVPTSYENGVLTVNHTPLSNSVYYAYFEPYSEEQHLNLLGDAQGSGLCRIDDLGSTVQGRDINLLTIGNQVESDLKIWITARQHPGETMAEWFIEGLLGRLLDPQDPTARALLDRATFYIVPNMNPDGSALGNLRTNAAGANLNREWENPTVEKSPEVFFVREKMLETGVDLFLDIHGDEGLPFVFVAGTEGVPNYNPRIAALEAQFKNALLNASPDFQDEYGYEKDAPGEANMTLATNWVGNRFNCLAYTLEMPFKDNANLPDDDFGWNGQRSLRLGEAALSAILNVIGDLR	not soluble
MIKISYSPYTLKPVQSLNAATAATAREGVLLKVEWNDGLYGFADLHPWPELGDLSLEEQLSDLRMGRMTTQIEQSIWLARRDALLRKEKKHVFDGGEKIKNNYLLSHFQDLKPGFLDGLKNEGYNTVKVKMGRDLQKEADMLTHIAASGMRMRLDFNALGSWQTFEKFMVNLPLTVRPLIEYVEDPFPFDFHAWGEARKLAKIALDNQYDKVPWGKIASAPFDVIVIKPAKTDVDKAVAQCQKWNLKLAVTSYMDHPVGVVHAVGVAMELKDKYGDMILESGCLTHRLYQMDSFAAELSTQGPYLLKNKGTGVGFDKLLEALTWYQLKVR	soluble
MIKLKTPNSMEIAEQPAVITYVPELNAFRGKFLGLSGYCDFVSDSIQGLQKEGELSLREYLEDCKAAGIEPYARTEKIKTFTLRYPESLSERLNNAAAQQQVSVNTYIIETLNERLNHL	not soluble
MIKLVRIDYRLLHGQVVFAWTRALDIDHIIVANANAAGDAFVSMSLSLAKPAGVSLDIITVEQAAEKLASGKLDHKKVMVVLGNTAETLAFVEKVPGISVINYGGIAQKEGAQQFGKAIYLTEQEIADSQALKAKGIRLEMRQVPAHSAELLNDKL	not soluble
